According to patent US20210246166A1 (Bayer, published 2021):
Numbered stars: 1 amine (or outer) side, 2 acyl side, 3 side chain; on linkers, the order of the positions; unused ones are H or OH. Bridge positions count the residues as written; N and C are the ends. Square brackets hold non-standard residues; d marks the D form. Ends that are not written are not given here. X4 = (1S,3R)‑3‑(Amino)cyclopentanecarboxylic acid, O=C([C@H]1CC[C@@H](N[*:1])C1)[*:2]; X9 = (S)‑3‑(1-Pyrrolidine-2-yl)‑propionic acid, O=C(CC[C@@H]1CCCN1[*:1])[*:2]; X6 = (S)‑(1-Piperidin-3-yl)‑acetic acid, O=C(C[C@@H]1CCCN([*:1])C1)[*:2]; NH(CH2CH2O)5CH2CO = O=C(COCCOCCOCCOCCOCCN[*:1])[*:2]; Oic = O=C(O)[C@@H]1C[C@@H]2CCCC[C@@H]2N1; βPro(3S) = O=C([C@H]1CCN([*:1])C1)[*:2]; tBuAla = CC(C)(C)C[C@H](N)C(=O)O; Cba = N[C@@H](CC1CCC1)C(=O)O; Pen = CC(C)(S)[C@H](N)C(=O)O; β3hP = O=C(O)C[C@@H]1CCCN1; NMeC = CN[C@@H](CS)C(=O)O; Orn = NCCC[C@H](N)C(=O)O; Sar = CNCC(=O)O

T1: recombinant human MASP1 active protease (amino acids 297-699, C-terminal His Tag) (human, UniProt P48740 297-699)
T1 sequence: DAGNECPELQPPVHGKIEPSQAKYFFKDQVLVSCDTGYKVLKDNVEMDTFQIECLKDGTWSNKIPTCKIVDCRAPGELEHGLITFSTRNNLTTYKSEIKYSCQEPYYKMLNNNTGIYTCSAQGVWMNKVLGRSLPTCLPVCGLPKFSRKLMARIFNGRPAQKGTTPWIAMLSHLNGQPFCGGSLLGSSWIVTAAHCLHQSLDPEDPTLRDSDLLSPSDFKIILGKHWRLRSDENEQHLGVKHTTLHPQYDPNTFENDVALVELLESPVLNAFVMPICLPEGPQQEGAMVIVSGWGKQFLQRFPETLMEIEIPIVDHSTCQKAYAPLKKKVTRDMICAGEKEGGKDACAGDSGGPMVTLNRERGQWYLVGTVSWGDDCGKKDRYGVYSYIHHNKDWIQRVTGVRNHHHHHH

T2: recombinant human MASP1 active protease (amino acids 297-699, C-terminal His Tag) (human, UniProt P48740 297-699)
T2 sequence: T1 sequence

B1: ((N-Me)G)-IC+SRS-((tBu)A)-PPI-(Pen)+IP-(PEG5-CH2CO2H (18 atoms))-NH2 (peptide)
peptide: [Sar]ICSRS[tBuAla]PPI[Pen]IP[NH(CH2CH2O)5CH2CO]-NH2
modifications: disulfide 3-11; N-terminus assumed
SMILES: CC[C@H](C)[C@H](NC(=O)CNC)C(=O)N[C@H]1CSSC(C)(C)[C@@H](C(=O)N[C@H](C(=O)N2CCC[C@H]2C(=O)NCCOCCOCCOCCOCCOCC(N)=O)[C@@H](C)CC)NC(=O)[C@H]([C@@H](C)CC)NC(=O)[C@@H]2CCCN2C(=O)[C@@H]2CCCN2C(=O)[C@H](CC(C)(C)C)NC(=O)[C@H](CO)NC(=O)[C@H](CCCNC(=N)N)NC(=O)[C@H](CO)NC1=O
B2: AIC+SRS-((tBu)A)-PPI-((N-Me)C)+IPD-NH2 (peptide)
peptide: AICSRS[tBuAla]PPI[NMeC]IPD-NH2
modifications: disulfide 3-11; N-terminus assumed
SMILES: CC[C@H](C)[C@H](NC(=O)[C@H](C)N)C(=O)N[C@H]1CSSC[C@@H](C(=O)N[C@H](C(=O)N2CCC[C@H]2C(=O)N[C@@H](CC(=O)O)C(N)=O)[C@@H](C)CC)N(C)C(=O)[C@H]([C@@H](C)CC)NC(=O)[C@@H]2CCCN2C(=O)[C@@H]2CCCN2C(=O)[C@H](CC(C)(C)C)NC(=O)[C@H](CO)NC(=O)[C@H](CCCNC(=N)N)NC(=O)[C@H](CO)NC1=O
B3: (Orn)-IC+SRSLP-(Oic)-I-(Pen)+IPD-NH2 (peptide)
peptide: [Orn]ICSRSLP[Oic]I[Pen]IPD-NH2
modifications: disulfide 3-11; N-terminus assumed
SMILES: CC[C@H](C)[C@H](NC(=O)[C@@H](N)CCCN)C(=O)N[C@H]1CSSC(C)(C)[C@@H](C(=O)N[C@H](C(=O)N2CCC[C@H]2C(=O)N[C@@H](CC(=O)O)C(N)=O)[C@@H](C)CC)NC(=O)[C@H]([C@@H](C)CC)NC(=O)[C@@H]2C[C@@H]3CCCC[C@@H]3N2C(=O)[C@@H]2CCCN2C(=O)[C@H](CC(C)C)NC(=O)[C@H](CO)NC(=O)[C@H](CCCNC(=N)N)NC(=O)[C@H](CO)NC1=O
B4: TIC+SRS-((tBu)A)-PPI-((N-Me)C)+I-NH2 (peptide)
peptide: TICSRS[tBuAla]PPI[NMeC]I-NH2
modifications: disulfide 3-11; N-terminus assumed
SMILES: CC[C@H](C)[C@H](NC(=O)[C@@H]1CSSC[C@H](NC(=O)[C@@H](NC(=O)[C@@H](N)[C@@H](C)O)[C@@H](C)CC)C(=O)N[C@@H](CO)C(=O)N[C@@H](CCCNC(=N)N)C(=O)N[C@@H](CO)C(=O)N[C@@H](CC(C)(C)C)C(=O)N2CCC[C@H]2C(=O)N2CCC[C@H]2C(=O)N[C@@H]([C@@H](C)CC)C(=O)N1C)C(N)=O
B5: VIC+SRS-((tBu)A)-PPI-(Pen)+IPD-NH2 (peptide)
peptide: VICSRS[tBuAla]PPI[Pen]IPD-NH2
modifications: disulfide 3-11; N-terminus assumed
SMILES: CC[C@H](C)[C@H](NC(=O)[C@@H](N)C(C)C)C(=O)N[C@H]1CSSC(C)(C)[C@@H](C(=O)N[C@H](C(=O)N2CCC[C@H]2C(=O)N[C@@H](CC(=O)O)C(N)=O)[C@@H](C)CC)NC(=O)[C@H]([C@@H](C)CC)NC(=O)[C@@H]2CCCN2C(=O)[C@@H]2CCCN2C(=O)[C@H](CC(C)(C)C)NC(=O)[C@H](CO)NC(=O)[C@H](CCCNC(=N)N)NC(=O)[C@H](CO)NC1=O
B6: ((N-Me)G)-IC+SRS-((tBu)A)-PPI-(Pen)+IPD-(Orn)-(Orn)-(Orn)-NH2 (peptide)
peptide: [Sar]ICSRS[tBuAla]PPI[Pen]IPD[Orn][Orn][Orn]-NH2
modifications: disulfide 3-11; N-terminus assumed
SMILES: CC[C@H](C)[C@H](NC(=O)CNC)C(=O)N[C@H]1CSSC(C)(C)[C@@H](C(=O)N[C@H](C(=O)N2CCC[C@H]2C(=O)N[C@@H](CC(=O)O)C(=O)N[C@@H](CCCN)C(=O)N[C@@H](CCCN)C(=O)N[C@@H](CCCN)C(N)=O)[C@@H](C)CC)NC(=O)[C@H]([C@@H](C)CC)NC(=O)[C@@H]2CCCN2C(=O)[C@@H]2CCCN2C(=O)[C@H](CC(C)(C)C)NC(=O)[C@H](CO)NC(=O)[C@H](CCCNC(=N)N)NC(=O)[C@H](CO)NC1=O
B7: A-(Cba)-C+SRS-((tBu)A)-PPI-(Pen)+IPD-NH2 (peptide)
peptide: A[Cba]CSRS[tBuAla]PPI[Pen]IPD-NH2
modifications: disulfide 3-11; N-terminus assumed
SMILES: CC[C@H](C)[C@@H]1NC(=O)[C@@H]2CCCN2C(=O)[C@@H]2CCCN2C(=O)[C@H](CC(C)(C)C)NC(=O)[C@H](CO)NC(=O)[C@H](CCCNC(=N)N)NC(=O)[C@H](CO)NC(=O)[C@@H](NC(=O)[C@H](CC2CCC2)NC(=O)[C@H](C)N)CSSC(C)(C)[C@@H](C(=O)N[C@H](C(=O)N2CCC[C@H]2C(=O)N[C@@H](CC(=O)O)C(N)=O)[C@@H](C)CC)NC1=O
B8: ((N-Me)G)-IC+SRS-((tBu)A)-PPI-(Pen)+IP-((N-Me)G)-((N-Me)G)-((N-Me)G)-NH2 (peptide)
peptide: [Sar]ICSRS[tBuAla]PPI[Pen]IP[Sar][Sar][Sar]-NH2
modifications: disulfide 3-11; N-terminus assumed
SMILES: CC[C@H](C)[C@H](NC(=O)CNC)C(=O)N[C@H]1CSSC(C)(C)[C@@H](C(=O)N[C@H](C(=O)N2CCC[C@H]2C(=O)N(C)CC(=O)N(C)CC(=O)N(C)CC(N)=O)[C@@H](C)CC)NC(=O)[C@H]([C@@H](C)CC)NC(=O)[C@@H]2CCCN2C(=O)[C@@H]2CCCN2C(=O)[C@H](CC(C)(C)C)NC(=O)[C@H](CO)NC(=O)[C@H](CCCNC(=N)N)NC(=O)[C@H](CO)NC1=O
B9: Example 452: ((N-Me)G)-IC+SRSLP-(Oic)-I-(Pen)+IP-((1S,3R)-3-(Amino)cyclopentanecarboxylic acid)-OH (peptide)
peptide: [Sar]ICSRSLP[Oic]I[Pen]IP[X4]-OH
modifications: disulfide 3-11; N-terminus assumed
SMILES: CC[C@H](C)[C@H](NC(=O)CNC)C(=O)N[C@H]1CSSC(C)(C)[C@@H](C(=O)N[C@H](C(=O)N2CCC[C@H]2C(=O)N[C@@H]2CC[C@H](C(=O)O)C2)[C@@H](C)CC)NC(=O)[C@H]([C@@H](C)CC)NC(=O)[C@@H]2C[C@@H]3CCCC[C@@H]3N2C(=O)[C@@H]2CCCN2C(=O)[C@H](CC(C)C)NC(=O)[C@H](CO)NC(=O)[C@H](CCCNC(=N)N)NC(=O)[C@H](CO)NC1=O
B10: Example 451: ((N-Me)G)-IC+SRSLP-(Oic)-I-(Pen)+IP-((S)-(1-Piperidin-3-yl)-acetic acid)-OH (peptide)
peptide: [Sar]ICSRSLP[Oic]I[Pen]IP[X6]-OH
modifications: disulfide 3-11; N-terminus assumed
SMILES: CC[C@H](C)[C@H](NC(=O)CNC)C(=O)N[C@H]1CSSC(C)(C)[C@@H](C(=O)N[C@H](C(=O)N2CCC[C@H]2C(=O)N2CCC[C@@H](CC(=O)O)C2)[C@@H](C)CC)NC(=O)[C@H]([C@@H](C)CC)NC(=O)[C@@H]2C[C@@H]3CCCC[C@@H]3N2C(=O)[C@@H]2CCCN2C(=O)[C@H](CC(C)C)NC(=O)[C@H](CO)NC(=O)[C@H](CCCNC(=N)N)NC(=O)[C@H](CO)NC1=O
B11: Example 454: ((N-Me)G)-IC+SRSLP-(Oic)-I-(Pen)+IPN-OH (peptide)
peptide: [Sar]ICSRSLP[Oic]I[Pen]IPN-OH
modifications: disulfide 3-11; N-terminus assumed
SMILES: CC[C@H](C)[C@H](NC(=O)CNC)C(=O)N[C@H]1CSSC(C)(C)[C@@H](C(=O)N[C@H](C(=O)N2CCC[C@H]2C(=O)N[C@@H](CC(N)=O)C(=O)O)[C@@H](C)CC)NC(=O)[C@H]([C@@H](C)CC)NC(=O)[C@@H]2C[C@@H]3CCCC[C@@H]3N2C(=O)[C@@H]2CCCN2C(=O)[C@H](CC(C)C)NC(=O)[C@H](CO)NC(=O)[C@H](CCCNC(=N)N)NC(=O)[C@H](CO)NC1=O
B12: Example 455: ((N-Me)G)-IC+SRSLP-(Oic)-I-(Pen)+IP-(beta-homo-P)-OH (peptide)
peptide: [Sar]ICSRSLP[Oic]I[Pen]IP[β3hP]-OH
modifications: disulfide 3-11; N-terminus assumed
SMILES: CC[C@H](C)[C@H](NC(=O)CNC)C(=O)N[C@H]1CSSC(C)(C)[C@@H](C(=O)N[C@H](C(=O)N2CCC[C@H]2C(=O)N2CCC[C@H]2CC(=O)O)[C@@H](C)CC)NC(=O)[C@H]([C@@H](C)CC)NC(=O)[C@@H]2C[C@@H]3CCCC[C@@H]3N2C(=O)[C@@H]2CCCN2C(=O)[C@H](CC(C)C)NC(=O)[C@H](CO)NC(=O)[C@H](CCCNC(=N)N)NC(=O)[C@H](CO)NC1=O
B13: Example 453: ((N-Me)G)-IC+SRSLP-(Oic)-I-(Pen)+IP-((S)-3-(1-Pyrrolidine-2-yl)-propionic acid)-OH (peptide)
peptide: [Sar]ICSRSLP[Oic]I[Pen]IP[X9]-OH
modifications: disulfide 3-11; N-terminus assumed
SMILES: CC[C@H](C)[C@H](NC(=O)CNC)C(=O)N[C@H]1CSSC(C)(C)[C@@H](C(=O)N[C@H](C(=O)N2CCC[C@H]2C(=O)N2CCC[C@H]2CCC(=O)O)[C@@H](C)CC)NC(=O)[C@H]([C@@H](C)CC)NC(=O)[C@@H]2C[C@@H]3CCCC[C@@H]3N2C(=O)[C@@H]2CCCN2C(=O)[C@H](CC(C)C)NC(=O)[C@H](CO)NC(=O)[C@H](CCCNC(=N)N)NC(=O)[C@H](CO)NC1=O
B14: Example 456: ((N-Me)G)-IC+SRSLP-(Oic)-I-(Pen)+IP-((S)-Pyrrolidine-3-carboxylic acid)-OH (peptide)
peptide: [Sar]ICSRSLP[Oic]I[Pen]IP[βPro(3S)]-OH
modifications: disulfide 3-11; N-terminus assumed
SMILES: CC[C@H](C)[C@H](NC(=O)CNC)C(=O)N[C@H]1CSSC(C)(C)[C@@H](C(=O)N[C@H](C(=O)N2CCC[C@H]2C(=O)N2CC[C@H](C(=O)O)C2)[C@@H](C)CC)NC(=O)[C@H]([C@@H](C)CC)NC(=O)[C@@H]2C[C@@H]3CCCC[C@@H]3N2C(=O)[C@@H]2CCCN2C(=O)[C@H](CC(C)C)NC(=O)[C@H](CO)NC(=O)[C@H](CCCNC(=N)N)NC(=O)[C@H](CO)NC1=O

Each binder was assayed against T1, recombinant human MASP1 active protease … (assay: cell-based or functional assay).

human MASP1 IC50 [nM] | Binder
2 | B1
1.95 | B2
2 | B3
2 | B4
2 | B5
2 | B6
2 | B7
2 | B8

Each binder was assayed against recombinant human MASP2 active protease (amino acids 297-686, C-terminal His Tag) (human, UniProt O00187 297-686) (assay: cell-based or functional assay).
Target sequence in this assay (O00187 other isoform, or with tags, fused parts or gaps limits assumed): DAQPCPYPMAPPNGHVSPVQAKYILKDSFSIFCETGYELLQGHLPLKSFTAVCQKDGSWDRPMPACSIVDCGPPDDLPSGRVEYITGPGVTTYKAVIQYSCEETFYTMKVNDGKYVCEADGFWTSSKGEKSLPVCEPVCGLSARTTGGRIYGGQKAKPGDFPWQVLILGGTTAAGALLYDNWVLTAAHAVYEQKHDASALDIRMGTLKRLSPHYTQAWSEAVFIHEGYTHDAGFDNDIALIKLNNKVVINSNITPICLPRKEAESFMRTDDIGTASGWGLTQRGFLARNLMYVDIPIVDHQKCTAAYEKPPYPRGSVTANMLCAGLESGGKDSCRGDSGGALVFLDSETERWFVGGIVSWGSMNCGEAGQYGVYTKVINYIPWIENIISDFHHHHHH

human MASP2 IC50 [nM] | Binder
42 | B1
225 | B2
76 | B3
80 | B4
73 | B5
130 | B6
24 | B7
47 | B8

The binders below were run against T2, recombinant human MASP1 active protease … (assay: cell-based or functional assay).

human MASP1 IC50 [nM] | Binder
2 | B9
2.6 | B10
2 | B11
2.9 | B12
2.5 | B13
1.9 | B14

Target: recombinant human MASP2 active protease (amino acids 297-686, C-terminal His Tag) (human, UniProt O00187 297-686)
Assay: cell-based or functional assay
Remark: another data set of the same source
Target sequence in this assay (O00187 other isoform, or with tags, fused parts or gaps limits assumed): as above

human MASP2 IC50 [nM] | Binder
100 | B9
61 | B10
99 | B11
85 | B12
56 | B13
110 | B14
